From publication PMC12024540, “Peptide-Based Regulation of TNF-α-Mediated Cytotoxicity” (Biomolecules, 2025)
Like-named read-outs stand apart in the source and are kept apart here.

What was measured:
[1] = target: recombinant human tumor necrosis factor alpha (rhTNF-α) (human); assay: MST; labelled rhTNF-α (RED-NHS 2nd Generation) at 20 nM, peptide titrated in 16 serial dilutions, PBS, 20 min incubation in the dark, Monolith NT.115 Pico, medium MST power
[2] = target: recombinant human tumor necrosis factor alpha (rhTNF-α) (human)
[3] = target: recombinant human tumor necrosis factor alpha (rhTNF-α) (human); remark: listed apart in the source

recombinant human tumor necrosis factor alpha (rhTNF-α) (human), sequence (P01375 77-233): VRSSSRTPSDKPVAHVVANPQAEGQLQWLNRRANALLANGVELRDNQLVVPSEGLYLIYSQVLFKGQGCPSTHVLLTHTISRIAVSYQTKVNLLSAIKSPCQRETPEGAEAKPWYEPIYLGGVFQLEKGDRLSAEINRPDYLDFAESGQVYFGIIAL

Binder | Kd [1] | neutralization of TNF-α-induced cytotoxicity on L929 cells (MTT, 1 ng/mL TNF-α with actinomycin D, peptide 1 pM to 10 μM); blocks TNF-α with TNFR1 [2] | neutralization of TNF-α-induced cytotoxicity on L929 cells (MTT, 1 ng/mL TNF-α with actinomycin D, peptide 1 pM to 10 μM); blocks TNF-α with TNFR1 [3]
KRWSRYFWVDMTGTR [OB8 peptide] | 3890 nM | 7.5 µM | –
KGGGSGGGSGGGSRKEMGQV [OB2 peptide] | 46.7 nM | – | 81 pM
KGGGSGGGSHIHDDLLRYYGW [OB1 peptide] | 300 nM | – | 4.6 nM
